From US5843888 come the findings set out here.

Experiment [1] addresses α chain (α96Val→Trp) with the N-terminal methionine, as expressed in E. coli before processing (human).
The target in experiment [2] is β chain of human hemoglobin with the N-terminal methionine, as expressed in E. coli before processing (human).

Some results are limits rather than exact numbers.

As to “E. coli methionine aminopeptidase (from UniProt P0AE18) (enzyme)”, the removal of the N-terminal methionine, electrospray mass spectrometry of the purified r Hb in experiment [1] was more than 98%; in experiment [2], 90%.
